Measured values reported in the supplement of paper PMC9233669.
Variants at the floor of the assay were thinned out.

What was measured:
biotinyl-Phe-oxazolone = experiment: self-aminoacylation, catalytic enhancement (BFO) (fold over background); higher = more active; k-Seq, kA / k0A0; sequences stand for … in GGGAAUGGAUCCACAUCUACGAAUUC…UUCACUGCAGACUUGACGAAGCUG
Procedure, shortened: (§1)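 Catalytic enhancement equals the median kA over the uncatalyzed rate, the latter read from the low-activity peak of a bimodal Gaussian fit. Values of kA came from fitting each sequence's fraction reacted to a pseudo-first-order model, with 1000 bootstraps. Reacted RNA was captured with streptavidin and quantified by triplicate qPCR and Illumina sequencing after 90 minutes at room temperature with 2–1250 μM biotinyl-aminoacyl-oxazolone and 0.43 μM mutagenized RNA pools bearing a 21-nt variable region.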

biotinyl-Trp-oxazolone = experiment: self-aminoacylation, catalytic enhancement (BWO) (fold over background); higher = more active; k-Seq, kA / k0A0; sequences stand for … in GGGAAUGGAUCCACAUCUACGAAUUC…UUCACUGCAGACUUGACGAAGCUG
Procedure, shortened: as §1

Sequence	self-aminoacylation (biotinyl-Phe-oxazolone)	self-aminoacylation (biotinyl-Trp-oxazolone)
AUUACCCUGGCCAUCGAGUAA [Fam2.1 aminoacylation ribozyme variant]	3.72	2.74
CUCCUUCAAACAAUCGGUCCG [Fam1A.1 aminoacylation ribozyme variant]	6.9	6.67
CUACUUCAAGUAAUCGGUCUG [Fam1A.1 aminoacylation ribozyme variant]	9.14	6.74
AAGUAUGCUAAUAGUCACAAG [Fam3.1 aminoacylation ribozyme variant]	9.66	3.36
ACACACUUCAAGGAAUCGGUC [Fam1B.1 aminoacylation ribozyme variant]	3.08	2.96
GUACUUCAAAUAAUCGGUCUG [Fam1A.1 aminoacylation ribozyme variant]	10.4	10.7
CUUCUUCAACCAAUCGGUCUG [Fam1A.1 aminoacylation ribozyme variant]	9.05	6.07
UCACUCUUCAAGCAAUCGGUC [Fam1B.1 aminoacylation ribozyme variant]	27	12.7
CUACUUCAACCAAUCGGUGUG [Fam1A.1 aminoacylation ribozyme variant]	4.96	4.66
GUACUUCAAACAAUCGGACUG [Fam1A.1 aminoacylation ribozyme variant]	5.92	5.26
AAAUUUGCUAAUAGUCGUAAG [Fam3.1 aminoacylation ribozyme variant]	10.3	4.02
CUACUUCAAAUAAUCGGUCUU [Fam1A.1 aminoacylation ribozyme variant]	9.54	5.86
CCACUUCAAACAAUCGCUCUG [Fam1A.1 aminoacylation ribozyme variant]	3.32	2.69
CCACACUUCAAGUAAUCGGCC [Fam1B.1 aminoacylation ribozyme variant]	3.03	4.17
CAACUUCAAACAAUCGGUCUA [Fam1A.1 aminoacylation ribozyme variant]	26.4	13.9
AGGUUUGCUAAUAGUCACAAG [Fam3.1 aminoacylation ribozyme variant]	9.69	2.76
CUUCACCUAGGUCAUCGGGUC [Fam2.2 aminoacylation ribozyme variant]	3.47	2.29
UCACCCUUCAAGCAAUCGGUC [Fam1B.1 aminoacylation ribozyme variant]	10.5	6.03
CUGCCUCAAACAAUCGGUCUG [Fam1A.1 aminoacylation ribozyme variant]	34.5	20.9
CUACUUCAAACAAUCGGAAUG [Fam1A.1 aminoacylation ribozyme variant]	7.74	4.46
GAGUUUGCUAAUAGUCGAAAG [Fam3.1 aminoacylation ribozyme variant]	13.3	5.05
CAGUUUGCUAAUAGUCGUAAG [Fam3.1 aminoacylation ribozyme variant]	5.91	2.28
CGACUUCAAAAAAUCGGUCUG [Fam1A.1 aminoacylation ribozyme variant]	15.3	14
AAGUUUUCUAAAAGUCGCAAG [Fam3.1 aminoacylation ribozyme variant]	2.92	2.01

Sequence	self-aminoacylation (biotinyl-Phe-oxazolone)	self-aminoacylation (biotinyl-Trp-oxazolone)
CUACCCUUCAAGCAAUCGGUC [Fam1B.1 aminoacylation ribozyme variant]	8.35	5.52
AGGUUUGCUCAUAGUCGCAAG [Fam3.1 aminoacylation ribozyme variant]	2.95	2.45
ACACAGUUCAAGCAAUCGGUC [Fam1B.1 aminoacylation ribozyme variant]	3.76	3.46
UAGUUUGCUAAUAGUCGCAAG [Fam3.1 aminoacylation ribozyme variant]	9.38	3.18
AUAGUUCAAACAAUCGGUCUG [Fam1A.1 aminoacylation ribozyme variant]	4.05	3.06
CAACUUCAAACAAUCGCUCUG [Fam1A.1 aminoacylation ribozyme variant]	3.06	2.41
CCACUCUUCAAUCAAUCGGUC [Fam1B.1 aminoacylation ribozyme variant]	33.5	20.3
CUUCUUCAAAUAAUCGGUCUG [Fam1A.1 aminoacylation ribozyme variant]	10.7	7.57
CUACCUCAAACAAUCGGUCUG [Fam1A.1 aminoacylation ribozyme variant]	3.14	2.19
CCACACUUCAAACGAUCGGUC [Fam1B.1 aminoacylation ribozyme variant]	3.66	4.08
CCACAUUUCAACCAAUCGGUC [Fam1B.1 aminoacylation ribozyme variant]	7.78	5.58
CUACUUCAAGCAAUCGGUCUG [Fam1A.1 aminoacylation ribozyme variant]	13.6	7.74
CUACGUGAAACAAUCGGUCUG [Fam1A.1 aminoacylation ribozyme variant]	5.84	2.03
CUACUUCAAAAAAUCGGUCUC [Fam1A.1 aminoacylation ribozyme variant]	8.87	5.93
CCACACUUCAAUAAAUCGGUC [Fam1B.1 aminoacylation ribozyme variant]	11.7	6.22
CCCCACUUCAUGCAAUCGGUC [Fam1B.1 aminoacylation ribozyme variant]	2.57	2.78
CCACACUUCAAGCAAUCAGUC [Fam1B.1 aminoacylation ribozyme variant]	21.5	6.45
AAGUUUGCUAACAGUCGUAAG [Fam3.1 aminoacylation ribozyme variant]	27.2	7.81
UAAUUUGCUAAUAGUCGCAAG [Fam3.1 aminoacylation ribozyme variant]	2.21	2.01
ACGCACUUCAAGCAAUCGGUC [Fam1B.1 aminoacylation ribozyme variant]	33.8	19.9
AAGUUUGCUAAUAUUCCCAAG [Fam3.1 aminoacylation ribozyme variant]		2.1
AAGUUGGCUAAUAGUCGCGAG [Fam3.1 aminoacylation ribozyme variant]		3.96
CCACACUUCAAGAAAUCGGUU [Fam1B.1 aminoacylation ribozyme variant]		2.03
GUACGUCAAACAAUCGGUCUG [Fam1A.1 aminoacylation ribozyme variant]		2.71
